Three molecules from patent US20240148892A1 (DUALITY BIOLOGICS SUZHOU, published 2024) can be followed below.

Experiment [1] has as its target T1, Human B7-2 protein, His Tag (human, UniProt P42081 24-247).
T1 construct: Bought protein; also called ACRO CD6-H5223; not shown: His tag
T1 sequence (looked up): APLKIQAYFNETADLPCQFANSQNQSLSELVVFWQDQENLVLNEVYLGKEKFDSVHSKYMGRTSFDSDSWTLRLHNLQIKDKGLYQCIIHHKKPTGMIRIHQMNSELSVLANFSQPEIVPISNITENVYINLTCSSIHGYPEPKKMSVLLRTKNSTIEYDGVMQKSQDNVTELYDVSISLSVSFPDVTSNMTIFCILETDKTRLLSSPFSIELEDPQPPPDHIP
Put plainly: ELISA, B7 family protein immobilized on plate, serially diluted antibody. On the procedure:
Human PD-Ll protein (see the table above), human B7-H2 protein, human B7-H3 protein, human B7-H4 protein, human B7-H5 protein, human B7-H6 protein, human B7-1 protein, human B7-2 protein, human PD-L2 protein, human B7-H7 protein, and human BTNL2 protein were separately immobilized on 96-well plates by incubation at 4° C. overnight. The 96-well plates were then blocked by incubation with 1% BSA in PBS at 37° C. for 1 h. After blocking, the 96-well plates were washed 3 times with PBST (PBS containing 0.05% Tween 20). […] After incubation, the 96-well plates were washed 3 times with PBST, incubated with a secondary antibody (see the table above) in binding buffer at 37° C. for 1 h, and then washed again. TMB was added for color development, and the reaction was stopped by 1 M H₂SO₄.
On the technique in general: In an ELISA, binding on a coated surface is turned into a signal by an enzyme label.

Experiment [2] has as its target T2, human 4IgB7H3 extracellular domain, 6xHis (human, UniProt Q5ZPR3 29-461).
T2 construct: range 29-461; Made in house in Expi293F cells; 47.8 kDa used in the SPR calculation; also called analyte human 4IgB7H3
T2 sequence: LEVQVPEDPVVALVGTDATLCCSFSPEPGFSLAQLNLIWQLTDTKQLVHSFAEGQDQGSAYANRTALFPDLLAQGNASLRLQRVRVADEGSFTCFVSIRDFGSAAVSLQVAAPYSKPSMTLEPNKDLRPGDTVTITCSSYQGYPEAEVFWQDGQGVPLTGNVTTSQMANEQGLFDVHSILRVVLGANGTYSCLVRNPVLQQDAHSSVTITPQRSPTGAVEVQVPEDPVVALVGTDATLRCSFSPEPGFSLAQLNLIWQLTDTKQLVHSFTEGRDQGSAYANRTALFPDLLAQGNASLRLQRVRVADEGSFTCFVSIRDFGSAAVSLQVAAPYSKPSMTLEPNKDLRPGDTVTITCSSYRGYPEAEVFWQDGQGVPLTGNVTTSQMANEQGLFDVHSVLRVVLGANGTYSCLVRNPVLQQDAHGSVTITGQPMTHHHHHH
Kind of experiment: SPR (Biacore 8K), antibody captured on anti-human Fc IgG, human 4IgB7H3 as analyte, 1:1 model. On the procedure:
The affinity of antibodies for human 4IgB7H3 was determined using surface plasmon resonance (SPR). The affinity of antibodies for human 4IgB7H3 was determined by Biacore 8K. An activator was prepared by mixing 400 mM EDC and 100 mM NHS (GE) immediately prior to injection into the channel. The CMS sensor chip was activated for 420 seconds with the activator. Goat anti-human Fc IgG (30 μg/mL in 10 mM NaAc, pH 4.5) was then injected into the channel at a flow rate of 10 μL/min for 420 seconds. The chip was deactivated by 1 M ethanolamine hydrochloric acid. The antibodies diluted in running buffer (1×HBS-EP+) were injected into the channel at a flow rate of 10 μL/min for 30 seconds. […] Glycine (10 mM, pH 1.5) was injected as regeneration buffer after the dissociation phase.
The sensorgrams for the reference channel and the buffer channel were subtracted from the test sensorgrams. The experimental data were fitted with a 1:1 binding model. The molecular weight of the human 4IgB7H3 used in the calculation was 47.8 kDa.
The experimental data were fitted by a 1:1 binding model bundled with the Biacore 8K evaluation software.

The target of experiment [3] is T3, cynomolgus monkey B7H3 on transfected FlpinCHO cells (cynomolgus monkey).
T3 construct: whole, on cells; also called W3XX088-FlpinCHO.cPro1.pool
Put plainly: flow cytometry (FACS) on FlpinCHO cells transfected with cynomolgus monkey B7H3. The procedure:
FACS was used to detect the binding of antibodies to cynomolgus monkey B7H3. FlpinCHO cells were transfected with cynomolgus monkey B7H3 (W3XX088-FlpinCHO.cProl.pool) (1×10⁵ cells/well), and the transfected cells were incubated with various concentrations of antibodies (3.16-fold serially diluted with 1×DPBS/1% BSA from 50 nM to 0.0005 nM) in a volume of 100 μL/well in a refrigerator set to 4 ° C. for 1 h. Anti-human B7H3 reference antibody enoblituzumab (MacroGeneics) was used as a positive control. Human IgG1 isotype antibody was used as a negative control. After washing the cells with 1×DPBS/1% BSA, Alexa 647 goat anti-human antibody (diluted in a 1:500 ratio in 1×DPBS/1% BSA) was added. The cells were incubated in a refrigerator set to 4° C. for 0.5 h in the dark. The mean fluorescence intensity (MFI) of the cells was measured by a flow cytometry and analyzed by FlowJo. EC₅₀ values were calculated by four-parameter non-linear regression analysis using GraphPad Prism 7 software.
(Flow cytometry measures light scatter and fluorescence of single cells or particles in a stream.)

The target of experiment [4] is T4, human full-length B7H3 expressed on MCF-7 cells (human, UniProt Q5ZPR3 29-534).
T4 sequence: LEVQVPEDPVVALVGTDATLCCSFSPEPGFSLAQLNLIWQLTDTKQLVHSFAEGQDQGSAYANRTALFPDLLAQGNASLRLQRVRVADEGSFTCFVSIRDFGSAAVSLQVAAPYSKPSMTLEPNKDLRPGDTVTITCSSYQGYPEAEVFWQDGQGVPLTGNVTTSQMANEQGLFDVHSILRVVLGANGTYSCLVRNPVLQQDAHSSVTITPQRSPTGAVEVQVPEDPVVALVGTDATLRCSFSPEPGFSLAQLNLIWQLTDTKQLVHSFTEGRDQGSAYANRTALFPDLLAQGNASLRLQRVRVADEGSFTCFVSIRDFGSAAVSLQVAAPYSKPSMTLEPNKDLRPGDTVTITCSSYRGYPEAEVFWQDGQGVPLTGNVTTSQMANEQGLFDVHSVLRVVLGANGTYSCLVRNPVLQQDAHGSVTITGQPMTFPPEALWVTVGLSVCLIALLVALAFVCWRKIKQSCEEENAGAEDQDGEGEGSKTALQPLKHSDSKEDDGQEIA
Kind of experiment: cell-based or functional assay.

The Kd is the free concentration of one partner at which half of the binding sites on the other are occupied at equilibrium, for simple one-to-one binding. The term koff denotes the first-order rate constant of dissociation. As usually defined, the kon is the rate constant with which the complex forms. By EC50 is commonly meant the midpoint of the concentration-response curve.

B1: W301088-1.145.16-z3-p1-uIgG1KV320 (antibody, V domains shown)
VH: QVQLQESGPGLVKPSQTLSLTCTVTDYSITGDYAWNWIRQHPGKGLEWIGYISYSGSTSYNPSLQSRVTISRDTSKNQFSLKLSSVTAADTAVYFCARSLGRRWYFVVWGQGTTVTVSS
VL: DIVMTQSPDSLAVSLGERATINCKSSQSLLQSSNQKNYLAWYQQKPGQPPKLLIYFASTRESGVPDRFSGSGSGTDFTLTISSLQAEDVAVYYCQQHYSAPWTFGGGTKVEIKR
notes: Humanized, PTM-removed (VL N027dQ) human IgG1 LALA kappa antibody; also called WBP301088; W301088-z3-p1
As for B1, the binding result in experiment [1] is on record as “no binding”. In experiment [2], this molecule showed an equilibrium dissociation constant (Kd) of 0.0708 nM, a koff of 4.65e-05 s⁻¹ and a kon of 657000 M⁻¹ s⁻¹. This molecule also gave an EC50 in experiment [3] of 4.68 nM. Further, the “Antibody internalization EC50, MCF-7 cells (value in running text, differs from Table 16)” value in experiment [4] was determined as 0.51 nM.

B2: W301088-1.145.16-xIgG1KV320 (antibody, V domains shown)
VH: DVQLQESGPGLVKPSQSLSLTCTVTDYSITGDYAWNWIRQFPGNKLEWMGYISYSGSTSYNPSLQSRISITRDTSKNQFFLQLNSVTSEDTATYFCARSLGRRWYFVVWGAGTTVTVSA
VL: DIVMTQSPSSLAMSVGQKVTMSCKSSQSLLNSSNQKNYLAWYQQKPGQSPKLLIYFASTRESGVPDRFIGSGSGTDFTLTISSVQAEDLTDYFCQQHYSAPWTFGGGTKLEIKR
In experiment [2], B2 had a Kd of 0.0515 nM, a koff of 3.39e-05 s⁻¹ and a kon of 657000 M⁻¹ s⁻¹. Also, it took 5.25 nM to reach a half-maximal effect in experiment [3] (EC50).

B3: Enoblituzumab (MacroGenics) (antibody, V domains shown)
VH: EVQLVESGGGLVQPGGSLRLSCAASGFTFSSFGMHWVRQAPGKGLEWVAYISSDSSAIYYADTVKGRFTISRDNAKNSLYLQMNSLRDEDTAVYYCGRGRENIYYGSRLDYWGQGTTVTVSS
VL: DIQLTQSPSFLSASVGDRVTITCKASQNVDTNVAWYQQKPGKAPKALIYSASYRYSGVPSRFSGSGSGTDFTLTISSLQPEDFATYYCQQYNNYPFTFGQGTKLEIKR
As to B3, in experiment [2], the Kd amounted to 1.02 nM, the koff worked out at 0.000126 s⁻¹ and the kon worked out at 124000 M⁻¹ s⁻¹. Moreover, the EC50 in experiment [3] worked out at 9.58 nM.
